Assay results: paper PMC11613296

Target: Tau (2N4R Tau; Tau(291–391)) 2-441 (UniProt P10636)
Test: ELISA, immobilised Tau(291–391), soluble 2N4R Tau
Settings: reference: unmodified (WT) Tau(291–391)

Row | Substance | binding against the reference (sites S352) | binding against the reference (sites S356)
1 | Tau (2N4R Tau; Tau(291–391)) 291-391 (from UniProt P10636-8) pS352 Tau(291–391) | weaker | –
2 | Tau (2N4R Tau; Tau(291–391)) 291-391 (from UniProt P10636-8) pS356 Tau(291–391) | – | weaker
